Target: MCR2(OVA)
Test: cell-based or functional assay

OT-II TCR
NFAT-activation triggered by a T-cell population holding 1% peptide-specific CD4+ T-cells (% of the maximal NFAT-activation): 50
